Drawing on patent US20250043017A1, this text covers % Blocking, AP-1 luciferase EC50, Jurkat/AP1-luc/hPD1 + WSU-DLCL2/hPD-L1 + CD20xCD3 and AP-1 luciferase MAX (RLU), Jurkat/AP1-luc/hPD1 + WSU-DLCL2/hPD-L1 + CD20xCD3 for two molecules.

The target in assay [1] is human 4-1BB expressed with a C-terminal myc-myc-hexahistidine tag (h4-1BB.mmH) (human). Nature of the assay: blocking ELISA, 0.25 nM h4-1BB-mmh binding to coated 6His-Flag-h4-1BBL. In general terms: An ELISA detects its analyte on a solid surface through an enzyme-linked reagent.
Chain of human 4-1BB expressed with a C-terminal myc-myc-hexahistidine tag (h4-1BB.mmH) (human) (chain, as listed by the source limits assumed): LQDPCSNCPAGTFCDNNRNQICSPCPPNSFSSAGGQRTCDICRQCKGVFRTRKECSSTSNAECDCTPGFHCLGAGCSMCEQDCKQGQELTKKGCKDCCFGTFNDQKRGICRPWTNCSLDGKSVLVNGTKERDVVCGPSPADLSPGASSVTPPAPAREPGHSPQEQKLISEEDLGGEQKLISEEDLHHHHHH
The target in assay [2] is human PD1 on Jurkat/AP1-luc/hPD1 cells (human) (UniProt Q15116). Nature of the assay: cell-based or functional assay.
Chain of human PD1 on Jurkat/AP1-luc/hPD1 cells (human) (Q15116 25-288): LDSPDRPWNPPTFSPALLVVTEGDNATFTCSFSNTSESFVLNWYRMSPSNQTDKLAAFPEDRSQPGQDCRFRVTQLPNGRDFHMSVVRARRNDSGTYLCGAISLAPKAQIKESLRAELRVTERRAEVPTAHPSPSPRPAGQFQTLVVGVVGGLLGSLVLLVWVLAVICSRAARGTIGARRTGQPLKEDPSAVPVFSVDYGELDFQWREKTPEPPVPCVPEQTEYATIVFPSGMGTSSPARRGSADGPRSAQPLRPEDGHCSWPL

B1: Comparator 1 (antibody, INN chains, looked up, V domains shown)
VH: EVQLVQSGAEVKKPGESLRISCKGSGYSFSTYWISWVRQMPGKGLEWMGKIYPGDSYTNYSPSFQGQVTISADKSISTAYLQWSSLKASDTAMYYCARGYGIFDYWGQGTLVTVSS
VL: SYELTQPPSVSVSPGQTASITCSGDNIGDQYAHWYQQKPGQSPVLVIYQDKNRPSGIPERFSGSNSGNTATLTISGTQAMDEADYYCATYTGFGSLAVFGGGTKLTVLG
B1 showed a % Blocking at 100 nM mAb in assay [1] of 72%.

B2: REGN2810 (antibody, INN chains, looked up, V domains shown)
VH: EVQLLESGGVLVQPGGSLRLSCAASGFTFSNFGMTWVRQAPGKGLEWVSGISGGGRDTYFADSVKGRFTISRDNSKNTLYLQMNSLKGEDTAVYYCVKWGNIYFDYWGQGTLVTVSS
VL: DIQMTQSPSSLSASVGDSITITCRASLSINTFLNWYQQKPGKAPNLLIYAASSLHGGVPSRFSGSGSGTDFTLTIRTLQPEDFATYYCQQSSNTPFTFGPGTVVDFR
As for B2, in assay [2], the AP-1 luciferase EC50, Jurkat/AP1-luc/hPD1 + WSU-DLCL2/hPD-L1 + CD20xCD3 came out at 0.29 nM and the AP-1 luciferase MAX (RLU), Jurkat/AP1-luc/hPD1 + WSU-DLCL2/hPD-L1 + CD20xCD3 worked out at 1.1e+06 RLU.
